The target in the assay is SARS-CoV-2 Delta variant S1 protein (SARS-CoV-2). The assay can be described thus: SPR. For orientation: SPR reads the build-up and loss of mass on a sensor chip optically.

Usually Kd stands for the free concentration of one partner at which half of the binding sites on the other are occupied at equilibrium, for simple one-to-one binding. High values mean a looser complex, low ones a tighter complex. In turn, original monoclonal antibody REGN10987 displayed an equilibrium dissociation constant (Kd) of 0.9 nM.
